The target in the data set is nsp12 (RdRp) (SARS-CoV Frankfurt-1, UniProt P0C6X7 4370-5301). In words: EMSA.

B1: SAV557R/SAV481R primer-template duplex (dsRNA)
RNA 1: GCUAUGUGAGAUUAAGUUAU
RNA 2: UUUUUUUUUUAUAACUUAAUCUCACAUAGC
As for B1, binding was put at a Kd of 130 nM.
The same measure for GCUAUGUGAGAUUAAGUUAU (ssRNA) [SAV557R ssRNA]: 100 nM.

As usually defined, the Kd is the constant that tells how readily two partners part at equilibrium. Higher therefore signals lower affinity.

The values above are taken from paper PMC2800238.
